Measurements from paper PMC12644734.

Target: T1, SARS-CoV M protein (SARS-CoV), P59596
T1 chain: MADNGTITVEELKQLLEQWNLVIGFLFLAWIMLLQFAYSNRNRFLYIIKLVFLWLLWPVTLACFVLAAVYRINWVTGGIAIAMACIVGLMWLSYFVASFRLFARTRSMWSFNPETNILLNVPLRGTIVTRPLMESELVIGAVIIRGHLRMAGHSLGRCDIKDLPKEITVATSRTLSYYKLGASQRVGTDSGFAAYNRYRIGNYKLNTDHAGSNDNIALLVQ
Assay: cryo-EM structure
Settings: remark: other sources report otherwise

B1: SARS-CoV M protein, P59596 1-221 (natural protein)
chain: T1 chain
- stoichiometry N: 2
